In patent US20080014143A1 (SANFORD BURNHAM MEDICAL RESEARCH INSTITUTE, published 2008):
Bridge positions count the residues as written; N and C are the ends. Ends that are not written are not given here.

Columns and labels:
[1] = target: purified gC1qR/p32 protein (coated onto microtiter wells) (human) (UniProt Q07021); assay: phage binding to purified p32 coated on microtiter wells, plaque assay
[2] = target: purified gC1qR/p32 protein (coated onto microtiter wells) (human) (UniProt Q07021); assay: inhibition of phage binding to purified p32 on wells; competitor LyP-1 phage; 20 µg/ml mAb
[3] = target: gC1qR/p32 at the cell surface (C8161 cells transfected with p32 cDNA; MDA-MB-435 and MDA-MB-435 S35 cells; Raji cells) (human) (UniProt Q07021); assay: inhibition of LyP-1 phage binding to Raji cells; competitor LyP-1 phage; 40 µg/ml mAb
[4] = target: T1, endogenous gC1qR/p32 of tumor cells and tissues (extracts of MDA-MB-435 cells, BT549 cells, MDA-MB-435 tumor … (human, UniProt Q07021 74-282)); assay: pull-down from MDA-MB-435 cell extract with biotinylated peptide on streptavidin beads, anti-p32 immunoblot
T1 construct: mature; 33 kD band in cell extracts; in tumor xenograft extracts an additional 75 kD band was also identified as gC1qR/p32; also called gC1q/p32 receptor; p32/p33/gC1qR/HABP1
T1 sequence (looked up): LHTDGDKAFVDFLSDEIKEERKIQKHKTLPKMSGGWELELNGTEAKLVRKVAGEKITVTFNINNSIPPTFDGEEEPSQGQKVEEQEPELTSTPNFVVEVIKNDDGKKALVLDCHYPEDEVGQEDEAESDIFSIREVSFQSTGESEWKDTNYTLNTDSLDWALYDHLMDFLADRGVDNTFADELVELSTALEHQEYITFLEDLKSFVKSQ
Description: A tumor homing peptide, CREKA (SEQ ID NO: 3), and a peptide CRV which resembles Lyp-1 in its amino acid composition and cyclic structure (SEQ ID NO: 4, […]), were used as negative controls. (a) Left panel: silver staining of Lyp-1 bound proteins. The arrow indicates a specific 33 kD band, which was identified as gC1q/p32R by mass spectrometry. Right panel: immunoblot of total cell extract (Tot lysate) and proteins bound to Lyp-1 and control peptides using a monoclonal antibody against gC1q/p32 receptor. The antibody recognizes a band of 33 kD in the total proteins lysate and in the Lyp-1 pull down. Anti gC1q/p32 receptor reactive bands are not detected in the pull downs from both control peptides. […] The monoclonal antibody against gC1qR/p32 recognized a 75 kD and a 33 kD band only in the Lyp-1 peptide pull down (b-right panel).
A tumor homing peptide, CREKA (SEQ ID NO:3), and a peptide CRV which resembles Lyp-1 in its amino acid composition and cyclic structure (SEQ ID NO:4, […]), were used as negative controls. The Lyp-1 bound proteins were visualized using silver staining and immunobloting. […] The arrow indicates a specific 33 kD band, which was identified as gC1qR/p32 by mass spectrometry. […] The antibody recognizes a band of 33 kD in the total proteins lysate and in the Lyp-1 pull down. Anti gC1qR/p32 reactive bands are not detected in the pull downs from both control peptides.

[5] = target: T2, gC1qR/p32 at the cell surface (C8161 cells transfected with p32 cDNA); MDA-MB-435 and MDA-MB-435 S35 cells; … (human, UniProt Q07021 74-282); assay: FACS of FITC-peptide on live MDA-MB-435 cells transfected with p32 siRNA or control siRNA
T2 construct: whole, on cells; also called cell surface p32; cell surface gC1qR/p32
T2 sequence (looked up): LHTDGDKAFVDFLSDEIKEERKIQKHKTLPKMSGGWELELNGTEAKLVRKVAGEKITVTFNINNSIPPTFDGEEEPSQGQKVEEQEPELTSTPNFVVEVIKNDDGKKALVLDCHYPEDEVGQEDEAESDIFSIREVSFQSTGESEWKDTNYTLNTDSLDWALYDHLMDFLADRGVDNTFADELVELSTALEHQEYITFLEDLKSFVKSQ
Description: 48 hours after transfection, inhibition of p32 expression was checked by immunoblot analysis and immunostaining (upper panels). β-actin was used as a control. (Lower panels) cells transfected with p32 siRNA or control siRNA were incubated for 1 h at 4 °C in the presence of 10 μM FITC conjugated LyP-1 peptide or a control peptide, […] (ARAL, SEQ ID NO: 5), which has same overall charge as LyP-1. Cells incubated in the absence of peptide served as negative control. Down-regulation of p32 expression reduced LyP-1 binding to the cells (left panel), but control peptide fluorescence was unaffected (right panel). A representative experiment out of three is shown. C. […] Insertless phage was used to determine background phage binding. The results are representative of three independent experiments and are expressed as percentage of phage binding (±SD), with binding of LyP-1 phage in the presence of mIgG1 set as 100%.
MDA-MB-435 cells were transiently transfected with gC1qR/p32-specific or control siRNAs. […] The amount of fluorescence in living cells was analyzed by FACS. Cells incubated in the absence of peptide served as FITC negative control.

For “LyP-1 phage (phage displaying the LyP-1 peptide)”, the fold binding over insertless control phage [1] was 60 fold.

Molecule “mouse monoclonal anti-gC1qR/p32 antibody 60.11” has a percent reduction of LyP-1 phage binding [2] of 90% and a percent reduction of LyP-1 binding [3] of 50%.

B1: biotinylated CRV peptide (CRVRTRSGC) (peptide)
peptide: CRVRTRSGC
modifications: disulfide 1-9 (inferred); also: biotinylated, site not given here
notes: Negative control in the pull-down; also called control peptide
B1: no binding [4].

B2: FITC conjugated control peptide ARALPSQRSR (peptide)
peptide: ARALPSQRSR
modifications: also: FITC conjugated, site not given here
notes: Same overall charge as LyP-1
B2: no binding (tested: 10 µM) [5].

B3: biotinylated CREKA peptide (peptide)
peptide: CREKA
modifications: also: biotinylated, site not given here
notes: as for B1
B3: no binding [4].
